For test [1], the target named is T1, polypeptide of SEQ ID NO: 85 (amino acids 23 to 318 of human IL-11Rα, serine at position 248, 8×HIS tag) (human, UniProt Q14626 23-318).
T1 construct: also called WT D1/2; truncated hIL-11R
T1 sequence: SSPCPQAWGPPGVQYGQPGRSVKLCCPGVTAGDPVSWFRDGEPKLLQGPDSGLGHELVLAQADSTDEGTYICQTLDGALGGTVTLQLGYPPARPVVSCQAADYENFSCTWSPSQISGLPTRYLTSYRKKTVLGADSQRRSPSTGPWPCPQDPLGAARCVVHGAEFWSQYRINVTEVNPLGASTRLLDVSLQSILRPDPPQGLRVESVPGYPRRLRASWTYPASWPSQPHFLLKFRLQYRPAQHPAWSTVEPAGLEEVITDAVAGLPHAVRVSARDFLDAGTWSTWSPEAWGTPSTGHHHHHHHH
The test can be described thus: Biacore, antibody captured on anti-human IgG Fc, receptor injected; N = 2, both values shown. The procedure:
(§1) Various point mutants of soluble forms of IL-11R were produced in which amino acids from mIL-11 were introduced into a soluble form of hIL-11 (SEQ ID NO: 85) (see Table 5 for positions of mutations relative to SEQ ID NO: 1 and for reference to the SEQ ID NO: of each polypeptide) and the binding of antibodies to those polypeptides or to polypeptides of SEQ ID NO: 3 or SEQ ID NO: 85 was determined using Biacore analysis or FACS.
(§2) Anti human IgG Fc specific antibody was chemically immobilized on a CM5 chip to ˜9000 RU. Antibodies were captured at about 0.3-1 μg/ml for 120 seconds on 2 spots in each flow cell. Adjacent spots consisting of only anti human IgG were used as a reference. IL-11 receptors were injected over the captured antibodies and reference spots at 40, 10, 5 and 2.5 nM in duplicate. Blank injections of buffer only were also performed in duplicate. Injection was performed for 3 minutes and dissociation monitored for a further 5 minutes.

Test [2] deals with T1, polypeptide of SEQ ID NO: 85 (amino …). Put plainly: Biacore, antibody captured on anti-human IgG Fc, receptor injected; mean ± SE. The procedure: as §1, §2
In test [3] the target is T2, P65S mutant of soluble human IL-11Rα (SEQ ID NO: 97) (human, UniProt Q14626 23-318).
T2 sequence: T1 sequence with P43S, S226C
Put plainly: Biacore, antibody captured on anti-human IgG Fc, receptor injected; mean ± SE, N = 4. The procedure:
as §1, §2

Test [4] deals with T3, A178S mutant of soluble human IL-11Rα (SEQ ID NO: 99) (human, UniProt Q14626 23-318).
T3 sequence: T1 sequence with A156S, S226C
Described as above. The procedure: as §1, §2

The target of test [5] is T4, L101S mutant of soluble human IL-11Rα (SEQ ID NO: 98) (human, UniProt Q14626 23-318).
T4 sequence: T1 sequence with L79S, S226C
The description is as above. The procedure:
as §1, §2

For test [6], the target named is T5, K66R mutant of soluble human IL-11Rα (SEQ ID NO: 96) (human, UniProt Q14626 23-318).
T5 construct: also called K44R
T5 sequence: T1 sequence with K44R, S226C
Described as above. The procedure:
as §1, §2

Where a chain is given by its changes, count along the chain named. Where “and” joins values, the source holds several entries; their conditions need not be identical. Identical values can stand only once.

Consider two molecules from patent US20160031999A1 (CSL, published 2016).

B1: antibody 8D10 (antibody, human IgG4 S228P, kappa, V domains shown)
VH: EVQLLESGGGLVQPGGSLRLSCAASGFTFSRYMMGWVRQAPGKGLEWVSSIVPSGGITIYADSVKGRFTISRDNSKNTLYLQMNSLRAEDTAVYYCARDHMGIVATDWGQGTLVTVSS
VL: DIQMTQSPSSLSASVGDRVTITCQASQDITNYLNWYLHKPGKAPKLLIYDASNLQTGVPSRFSGSGSGTDFTFTITSLQPEDFGTYYCQQYDTLHPSFGPGTTVDIKR
Regarding B1, the Kd in test [1] is 0.57 nM and 0.69 nM; in test [2], 0.58 nM; in test [3] it was 0.67 nM; in test [4], 0.6 nM; in test [5], 0.7 nM; in test [6], 1.3 nM.

B2: antibody 8E4 (antibody, human IgG4 S228P, lambda, V domains shown)
VH: EVQLLESGGGLVQPGGSLRLSCAASGFTFSWYFMGWVRQAPGKGLEWVSYIYPSGGSTGYADSVKGRFTISRDNSKNTLYLQMHSLRAEDTAVYYCARDEGYCSSTSCYFDAFDIWGQGTMVTVSS
VL: QSALTQPPSASGSPGQSVAISCTGTSSDVGGYNFVSWYQQHPGKAPKLLIYEVTKRPSGVPDRFSGSKAGNTASLTVSGLQAEDEADYYCSSYGGSNNAGVFGTGTKVTVLG
For the molecule B2, the Kd in test [1] was 3.2 nM and 3.7 nM; in test [2], 2.78 nM; in test [3], 2.71 nM; in test [4], 2.63 nM; in test [5] it was 2.98 nM; in test [6], 5.6 nM.
